Experimental data as given in publication PMC3224728, “Identification of target genes of transcription factor activator protein 2 gamma in breast cancer cells”.

B1: HMT (dsDNA)
DNA 1: AACGGACCGCCCGCGGCCCGT
DNA 2: ACGGGCCGCGGGCGGTCCGTT
B2: WtR3-36-648/HPSE (dsDNA)
DNA 1: AAAAGTGCCCAGAGCCCATGA
DNA 2: TCATGGGCTCTGGGCACTTTT
B3: MtR3-36-648/HPSE (dsDNA)
DNA 1: AAAAGTATTCAGGGCCCATGA
DNA 2: TCATGGGCCCTGAATACTTTT
B4: WtR3-36-676/HPSE (dsDNA)
DNA 1: AATGTGGCCCTGGTCACTTAG
DNA 2: CTAAGTGACCAGGGCCACATT
B5: MtR3-36-676/HPSE (dsDNA)
DNA 1: AATGTGATTCTGATCACTTAG
DNA 2: CTAAGTGATCAGAATCACATT
B6: WtR4-28-854/CDH2 (dsDNA)
DNA 1: ATGCGACCTGCAGGCATGCCA
DNA 2: TGGCATGCCTGCAGGTCGCAT
B7: MtR4-28-854/CDH2 (dsDNA)
DNA 1: ATGCGACCCGCAAATATGCCA
DNA 2: TGGCATATTTGCGGGTCGCAT
B8: WtR1-15-286/IGSF11 (dsDNA)
DNA 1: TTTGCTGCCTTTGTCCTGTAG
DNA 2: CTACAGGACAAAGGCAGCAAA
B9: MtR1-15-286/IGSF11 (dsDNA)
DNA 1: TTTGCTATTTTTATCCTGTAG
DNA 2: CTACAGGATAAAAATAGCAAA

Target: T1, GST-AP-2γ (UniProt Q92754 1-450)
T1 sequence (Q92754 whole entry): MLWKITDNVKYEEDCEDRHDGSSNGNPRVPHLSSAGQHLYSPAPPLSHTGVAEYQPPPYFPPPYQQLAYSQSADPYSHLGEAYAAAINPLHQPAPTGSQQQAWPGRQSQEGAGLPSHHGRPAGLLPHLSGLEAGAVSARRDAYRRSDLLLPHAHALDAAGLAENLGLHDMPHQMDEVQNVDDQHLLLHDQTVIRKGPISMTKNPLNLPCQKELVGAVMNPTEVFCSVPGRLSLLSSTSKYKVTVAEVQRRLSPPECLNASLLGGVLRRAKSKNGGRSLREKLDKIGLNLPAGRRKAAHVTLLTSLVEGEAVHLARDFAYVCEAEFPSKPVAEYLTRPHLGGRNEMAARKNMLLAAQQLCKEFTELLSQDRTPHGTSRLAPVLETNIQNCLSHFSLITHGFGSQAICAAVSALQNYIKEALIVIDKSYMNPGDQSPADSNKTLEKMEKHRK
Test: competition; 10- or 50-fold excess unlabeled vs wild-type HPSE-648, CDH2-854, IGSF11-286 probes; markedly decreased binding; 10 mM HEPES pH 8.0, 60 mM KCl, 4 mM MgCl2, 0.1 mM EDTA, 100 μg/ml BSA, 0.25 mM DTT, 10% glycerol, 37°C 20 min; 5 pmol probe, 50 pmol protein in 15 μl; 6% native PAGE
Settings: protein: recombinant; tags: GST (N-terminal, pGEX-4T-2); chain copies: 2; blunt

Binder | binding result
B1 | binds

Target: T1, GST-AP-2γ
Test: EMSA; 10 mM HEPES pH 8.0, 60 mM KCl, 4 mM MgCl2, 0.1 mM EDTA, 100 μg/ml BSA, 0.25 mM DTT, 10% glycerol, 37°C 20 min; 5 pmol probe, 50 pmol protein in 15 μl; 6% native PAGE
Settings: protein: recombinant; tags: GST (N-terminal, pGEX-4T-2); chain copies: 2; label: 32P 5' end of forward strand; blunt

Binder | binding result
B2 | binds
B3 | no binding
B4 | no binding
B5 | no binding
B6 | binds
B7 | no binding
B8 | binds
B9 | no binding
